In patent publication US20160251438A1 (LUDWIG INSTITUTE FOR CANCER RESEARCH, published 2016):

Molecular target: GARP / TGF-β1 Y336A complex (human, UniProt Q14392 20-662; P01137 30-390)
Test: FACS 293T, 5 ug/ml, normalised to anti-HA
Description: Resolution of the crystal structure of MHG-8 Fab/GARP/TGF-β1 complexes and analysis with the CONTACT software allowed the identification of 22 amino-acids in GARP, 8 amino-acids in LAP and 6 amino-acids in mature TGF-β1 that are located less than 5 Å away from an amino-acid of the light or heavy chain of the MHG-8 Fab (Tables 7a, b and c, and Table 8). Directed mutagenesis was used to construct plasmids encoding HA-tagged forms of GARP or TGF-β1 that are mutated at one, two, or three of these 36 positions (all mutations constructed are indicated in Table 8). […] Antibodies were used at a saturating concentration of 5 μg/ml for labeling. Binding of each antibody to a given mutant GARP/TGF-β1 complex was compared to their binding to wild type (WT) complexes, by determining an I_{m/wt} value (i.e. intensity of binding to mutant by comparison to WT). This value was calculated as follows: I_{m/wt} of antibody X=[Geom on mutant−Geom on control]/[Geom on WT−Geom on control]
The level of residual binding of anti-GARP or anti-LAP antibodies to each mutant was then calculated by comparison to WT, taking into account the expression levels of mutant and WT forms as measured with anti-HA antibodies. Residual binding was calculated as follows: Residual binding by an anti-GARP or anti-LAP antibody=[I_{m/wt} with anti-GARP or anti-LAP antibody]/[I_{m/wt} with anti-HA antibody]

Chain of GARP / TGF-β1 Y336A complex (Q14392 20-662 limits assumed, chain 1 of 2): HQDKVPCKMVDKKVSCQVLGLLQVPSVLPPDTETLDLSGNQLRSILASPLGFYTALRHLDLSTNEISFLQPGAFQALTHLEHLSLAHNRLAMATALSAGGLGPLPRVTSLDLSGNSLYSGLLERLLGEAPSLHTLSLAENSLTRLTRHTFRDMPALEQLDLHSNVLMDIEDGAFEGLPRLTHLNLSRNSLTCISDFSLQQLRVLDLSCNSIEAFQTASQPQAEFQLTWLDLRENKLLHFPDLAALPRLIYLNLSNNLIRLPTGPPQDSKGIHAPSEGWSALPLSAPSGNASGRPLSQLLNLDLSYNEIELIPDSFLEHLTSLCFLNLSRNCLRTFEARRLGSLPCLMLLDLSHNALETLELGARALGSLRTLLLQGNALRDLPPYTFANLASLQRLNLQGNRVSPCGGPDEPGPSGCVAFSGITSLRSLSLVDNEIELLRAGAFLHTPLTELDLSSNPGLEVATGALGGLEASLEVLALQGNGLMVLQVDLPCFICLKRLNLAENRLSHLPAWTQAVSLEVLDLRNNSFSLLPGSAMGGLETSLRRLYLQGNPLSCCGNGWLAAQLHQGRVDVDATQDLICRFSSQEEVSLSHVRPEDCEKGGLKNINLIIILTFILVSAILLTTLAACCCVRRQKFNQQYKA
Chain of GARP / TGF-β1 Y336A complex (P01137 30-390 Y336A limits assumed, chain 2 of 2): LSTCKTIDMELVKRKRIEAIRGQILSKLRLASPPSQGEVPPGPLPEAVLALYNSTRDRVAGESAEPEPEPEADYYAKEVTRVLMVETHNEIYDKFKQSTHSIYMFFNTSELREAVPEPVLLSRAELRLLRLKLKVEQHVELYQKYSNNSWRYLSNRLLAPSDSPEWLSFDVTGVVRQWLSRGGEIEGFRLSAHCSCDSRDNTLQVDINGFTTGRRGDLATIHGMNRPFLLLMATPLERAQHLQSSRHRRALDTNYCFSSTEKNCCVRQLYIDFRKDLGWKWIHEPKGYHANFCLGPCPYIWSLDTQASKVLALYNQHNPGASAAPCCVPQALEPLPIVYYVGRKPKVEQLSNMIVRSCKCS

B1: LHG-10 (antibody, human IgG1, V domains shown)
VH: EVQLVQPGAELRNSGASVKVSCKASGYRFTSYYIDWVRQAPGQGLEWMGRIDPEDGGTKYAQKFQGRVTFTADTSTSTAYVELSSLRSEDTAVYYCARNEWETVVVGDLMYEYEYWGQGTQVTVSS
VL: DIQMTQSPTSLSASLGDRVTITCQASQSISSYLAWYQQKPGQAPKLLIYGASRLQTGVPSRFSGSGSGTSFTLTISGLEAEDAGTYYCQQYDSLPVTFGQGTKVELK
notes: llama-derived V regions in a full human IgG1
B1 was tested, and the “residual binding (% of WT)” value was 56%.
